Results: publication PMC10910794, “Toxoplasma sortilin interacts with secretory proteins and it is critical for parasite proliferation” (Parasites & Vectors, 2024)

T1: His-TgROP9 (Toxoplasma gondii, UniProt S8F3X8 1-353)
T1 chain: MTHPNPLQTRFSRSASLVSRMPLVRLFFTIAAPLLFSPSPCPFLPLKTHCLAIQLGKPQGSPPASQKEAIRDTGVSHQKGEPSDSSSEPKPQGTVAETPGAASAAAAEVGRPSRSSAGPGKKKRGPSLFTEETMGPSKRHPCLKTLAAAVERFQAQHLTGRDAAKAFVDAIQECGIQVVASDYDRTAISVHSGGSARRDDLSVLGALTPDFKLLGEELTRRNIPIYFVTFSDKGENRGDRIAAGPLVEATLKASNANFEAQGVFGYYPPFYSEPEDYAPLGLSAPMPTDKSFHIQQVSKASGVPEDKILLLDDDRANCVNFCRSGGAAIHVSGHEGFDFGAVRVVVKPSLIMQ

T2: His-TgMIC3 (Toxoplasma gondii, UniProt A0A7J6KDB0 27-383)
T2 chain: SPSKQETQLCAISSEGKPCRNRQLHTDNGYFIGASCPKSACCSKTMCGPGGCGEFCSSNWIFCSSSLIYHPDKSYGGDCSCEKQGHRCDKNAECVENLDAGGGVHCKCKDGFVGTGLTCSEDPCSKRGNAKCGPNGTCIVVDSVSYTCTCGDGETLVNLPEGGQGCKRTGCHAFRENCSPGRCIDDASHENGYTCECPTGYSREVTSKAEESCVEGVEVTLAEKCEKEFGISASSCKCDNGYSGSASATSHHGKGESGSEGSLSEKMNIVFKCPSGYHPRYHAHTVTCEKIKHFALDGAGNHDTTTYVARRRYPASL

T3: His-TgSAG2 (Toxoplasma gondii)
T3 chain: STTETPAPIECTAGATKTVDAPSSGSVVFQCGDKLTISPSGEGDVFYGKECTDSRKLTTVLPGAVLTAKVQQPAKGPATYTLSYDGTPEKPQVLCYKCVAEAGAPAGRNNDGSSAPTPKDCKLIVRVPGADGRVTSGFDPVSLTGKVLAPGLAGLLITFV

B1: GST-tagged recombinant sortilin protein (natural protein)
chain: MYTSRTPHGGLRRWPLSRSSVSAVASRVLSRSVAFHRRLASFLLSRKKTPLCALSSRPSGLQASSGVQTVTMAHSFARGRPPAAGRTLAVFLAFLAVLSPSLLPEFFSEDAQKRESSVLVANAASYANKKVSVSEVSFDSHIEDIQWCGTDHRTILLKTRRGRLYRSQDGGKSWTEITDLLKSSEAATGTVAVDSIIVSPVDKRVVLIVGSKRNHFISEDSAATFRRLKYKNTIHNFHFHPTRPKYAILSTWTDACYSGSGTASRAQSQQDCNHQLFYTRDLGRSFKLVADYVVQFSWGDKKLGNTDHIFFTQHRGRSGDQPRYGGWSKNVDLMYTPDFGATITRLVYRGNKFLLSNGYFFVAKVKDAAKQTVSLLVSTDGGKSFQMAKLPVEIEERSYTVLDTSEDAIMLHVNHGHDNKGDTGNVYISDAKGVRYSLSLPNNIRTSTGECEFDKVLSLEGVYLANFKDSVDSSASVDGGQQGDLEKLEEEIEEEAEGVQVDLEKKHKSVATRSRQEEVIRTVISFDKGGVWSYLKAPKVDSRGQKIDCPPDRCWLHLNGITRFSDFAPFYSVENAVGIIMGTGNVGSYLRPEKDEANTYLSRDGGVSWIEAHKGAFIYEMGDHGGLLVMADDTKKTNQVVFSWNEGQSWYDFELGAAPLFVDNIVIEPNASSVEFLLYGKREQDSAGVLFHLDFNALNQQQCKGIWAADSVSSDYETWSPSDGRAGGERCILGKHITYTRRKQTSECFNGRDFDRPKVSKVCPCTMEDYECEFGFTRAIGSTQCVATDAAAAAAATATGLAQFADESDAAAAAACTSSSFFYTSAYRKVPGDVCEGGWMPEKVAVPCPAHSPVSRGGKTVLLLLLFIVVVMVVINYLAKTGRLKKFFRNAGFDSFANVSYGLVGASAGGPGGWLDQEAGESRRGEELGERSKYEPELGFIEAEQDENEEDAPTLMNYGNAAGGQRTSGMSSRSPKPTEDFELDDSRPLFPSHVSSRETQGSSGLHPRSTSTENEPIPRLAPPRFDEDNVELL

How the values were obtained:
[1] = target: T4, GST-Vps10 (Vps10 subdomain of T. gondii sortilin) (Toxoplasma gondii, UniProt A0A7J6KCY2); assay: bio-layer interferometry, biotinylated GST-Vps10 on SSA sensor; type: binding; conditions: AF38469 at 100-500 nM diluted in DMSO; PBS, DMSO as negative control
T4 construct: gene TGRH88_014830; Vps10 subdomain (160-667 aa) of 1033-aa sortilin; GST-tagged from pGEX-4T-1, E. coli BL21 (DE3); tag kept; biotinylated with NHS-PEG12-biotin

His-TgROP9 = target: T1, His-TgROP9; assay: BLI
His-TgMIC3 = target: T2, His-TgMIC3; assay: BLI
His-TgSAG2 = target: T3, His-TgSAG2; assay: BLI

| Molecule | bio-layer interferometry, biotinylated GST-Vps10 on SSA sensor [1] | Kd (His-TgROP9) | Kd (His-TgMIC3) | Kd (His-TgSAG2) |
| --- | --- | --- | --- | --- |
| Cc1cccc(NC(=O)c2ccc(C(F)(F)F)cc2C(=O)O)n1 [AF38469] | only the Vps10 subdomain could bind to AF38469 with high affinity |  |  |  |
| B1 |  | 0.963 nM | 0.847 nM | 915 nM |
